Assay results reported in patent US20250188176A1 (INVETX, published 2025).

T1: Extracellular domain (ECD) of the canine IL-4 receptor alpha-V5 epitope-AviTag-His Tag (canine)
T1 construct: monomeric form isolated by size exclusion; also called canine IL-4RA-V5-Avi-His; canine IL-4RA
T1 chain: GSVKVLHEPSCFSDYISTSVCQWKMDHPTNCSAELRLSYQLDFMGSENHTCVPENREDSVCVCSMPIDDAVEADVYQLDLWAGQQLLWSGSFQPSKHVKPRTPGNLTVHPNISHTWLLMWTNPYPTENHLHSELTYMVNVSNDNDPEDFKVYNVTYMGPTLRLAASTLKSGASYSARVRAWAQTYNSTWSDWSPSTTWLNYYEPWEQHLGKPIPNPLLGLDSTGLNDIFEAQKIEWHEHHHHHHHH


Molecular target: T1, Extracellular domain (ECD) of the …
Assay: SPR, Fab-SASA captured on BSA;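 note: biacore T200 SPR, Fab-SASA variants from E. coli conditioned medium captured on BSA-coated CM5 chip, canine IL-4RA injected 120 s then 420 s dissociation, 1:1 model fit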
Description: Forty-four PML clones were selected from each library for expression in E. coli in 96 deep-well plates by inoculating into 2YT medium and inducing with 0.2 mM IPTG overnight at room temperature. The Fab secreted in the medium was analyzed for binding activity by completing an ELISA. […] The 39 unique clones were confirmed by an off-rate screening assay in an SPR assay performed on a Biacore T200. For the SPR analyses, bovine serum albumin (BSA) was immobilized to CM5 sensor chip. The sensor chip surface was activated with 50 mmol/L H-Hydroxysuccinimide and 200 mmol/L 1-ethyl-3-(3-dimethylaminopropyl) carbodiimide hydrochloride for 420 s. Afterwards, BSA diluted in 10 mM sodium acetate, pH 4.5 was injected. After the amine coupling reaction, the remaining active coupling sites on the chip surface were blocked with 1 mM ethanolamine hydrochloride. The selected Fab-SASA variants in conditioned medium were captured on the BSA-coated chips. The running buffer was HBS-EP (10 mM HEPES 500 mM NaCl, 3 mM EDTA, 0.05% Tween 20, pH 7.4). After equilibration, canine IL-4RA was injected for 120 seconds (association phase) followed by the injection of running buffer for 420 sec (dissociation phase). The off-rates of the Fab-SASA clones were obtained from fitting the experimental data locally to a 1:1 interaction model using the Biacore T200 evaluation software.

Row | Kd [nM] | Ratio WT-kd/clone-kd | koff [s⁻¹] | kon [M⁻¹ s⁻¹] | Binder
1 | 4.52 | 1.12 | 0.00085 | 188000 | TB640_005 Fab-SASA VL-A60M (Fab, V domains shown, not shown: SASA tag then His-tag) VH: EVQLVESGGDLVKPGGSLRLSCVASGFTFRDYAMTWVRQAPGKGLQWVSLISGSGGKTYYADAVKGRFTISRDNAKNTLYLQMNSLRAEDTAVYYCAVDRLTKTIRPQYYGLWVWGQGTLVTVSS VL: DIVMTQTPLSLSVSPGETASISCRSSQSLLYSIGYNYLDWYLQKPGQSPQGLIYLGSKRMSGVPDRFSGSGSGTDFTLRISRVEANDTGVYYCMQGLQSPLTFGQGTKLEIKR
2 | 12.5 | 0.7 | 0.00137 | 109000 | TB640_005 Fab-SASA VL-I33P (Fab, V domains shown, not shown: SASA tag then His-tag) VH: EVQLVESGGDLVKPGGSLRLSCVASGFTFRDYAMTWVRQAPGKGLQWVSLISGSGGKTYYADAVKGRFTISRDNAKNTLYLQMNSLRAEDTAVYYCAVDRLTKTIRPQYYGLWVWGQGTLVTVSS VL: DIVMTQTPLSLSVSPGETASISCRSSQSLLYSPGYNYLDWYLQKPGQSPQGLIYLGSKRASGVPDRFSGSGSGTDFTLRISRVEANDTGVYYCMQGLQSPLTFGQGTKLEIKR
3 | 11.8 | 1.54 | 0.000618 | 52200 | TB640_005 Fab-SASA VL-L30T (Fab, V domains shown, not shown: SASA tag then His-tag) VH: EVQLVESGGDLVKPGGSLRLSCVASGFTFRDYAMTWVRQAPGKGLQWVSLISGSGGKTYYADAVKGRFTISRDNAKNTLYLQMNSLRAEDTAVYYCAVDRLTKTIRPQYYGLWVWGQGTLVTVSS VL: DIVMTQTPLSLSVSPGETASISCRSSQSLTYSIGYNYLDWYLQKPGQSPQGLIYLGSKRASGVPDRFSGSGSGTDFTLRISRVEANDTGVYYCMQGLQSPLTFGQGTKLEIKR
4 | 3.27 | 2.66 | 0.000358 | 109000 | TB640_005 Fab-SASA VL-G96P (Fab, V domains shown, not shown: SASA tag then His-tag) VH: EVQLVESGGDLVKPGGSLRLSCVASGFTFRDYAMTWVRQAPGKGLQWVSLISGSGGKTYYADAVKGRFTISRDNAKNTLYLQMNSLRAEDTAVYYCAVDRLTKTIRPQYYGLWVWGQGTLVTVSS VL: DIVMTQTPLSLSVSPGETASISCRSSQSLLYSIGYNYLDWYLQKPGQSPQGLIYLGSKRASGVPDRFSGSGSGTDFTLRISRVEANDTGVYYCMQPLQSPLTFGQGTKLEIKR
5 | 13.4 | 1.09 | 0.000873 | 65300 | TB640_005 Fab-SASA VL-Q27E (Fab, V domains shown, not shown: SASA tag then His-tag) VH: EVQLVESGGDLVKPGGSLRLSCVASGFTFRDYAMTWVRQAPGKGLQWVSLISGSGGKTYYADAVKGRFTISRDNAKNTLYLQMNSLRAEDTAVYYCAVDRLTKTIRPQYYGLWVWGQGTLVTVSS VL: DIVMTQTPLSLSVSPGETASISCRSSESLLYSIGYNYLDWYLQKPGQSPQGLIYLGSKRASGVPDRFSGSGSGTDFTLRISRVEANDTGVYYCMQGLQSPLTFGQGTKLEIKR
6 | 8.2 | 1.41 | 0.000677 | 82600 | TB640_005 Fab-SASA VL-S57H (Fab, V domains shown, not shown: SASA tag then His-tag) VH: EVQLVESGGDLVKPGGSLRLSCVASGFTFRDYAMTWVRQAPGKGLQWVSLISGSGGKTYYADAVKGRFTISRDNAKNTLYLQMNSLRAEDTAVYYCAVDRLTKTIRPQYYGLWVWGQGTLVTVSS VL: DIVMTQTPLSLSVSPGETASISCRSSQSLLYSIGYNYLDWYLQKPGQSPQGLIYLGHKRASGVPDRFSGSGSGTDFTLRISRVEANDTGVYYCMQGLQSPLTFGQGTKLEIKR
7 | 9.76 | 0.3 | 0.00321 | 328000 | TB640_005 Fab-SASA VL-L101N (Fab, V domains shown, not shown: SASA tag then His-tag) VH: EVQLVESGGDLVKPGGSLRLSCVASGFTFRDYAMTWVRQAPGKGLQWVSLISGSGGKTYYADAVKGRFTISRDNAKNTLYLQMNSLRAEDTAVYYCAVDRLTKTIRPQYYGLWVWGQGTLVTVSS VL: DIVMTQTPLSLSVSPGETASISCRSSQSLLYSIGYNYLDWYLQKPGQSPQGLIYLGSKRASGVPDRFSGSGSGTDFTLRISRVEANDTGVYYCMQGLQSPNTFGQGTKLEIKR
8 | 8.8 | 1.32 | 0.00072 | 81800 | TB640_005 Fab-SASA VL-S57N (Fab, V domains shown, not shown: SASA tag then His-tag) VH: EVQLVESGGDLVKPGGSLRLSCVASGFTFRDYAMTWVRQAPGKGLQWVSLISGSGGKTYYADAVKGRFTISRDNAKNTLYLQMNSLRAEDTAVYYCAVDRLTKTIRPQYYGLWVWGQGTLVTVSS VL: DIVMTQTPLSLSVSPGETASISCRSSQSLLYSIGYNYLDWYLQKPGQSPQGLIYLGNKRASGVPDRFSGSGSGTDFTLRISRVEANDTGVYYCMQGLQSPLTFGQGTKLEIKR
9 | 20.1 | 0.62 | 0.00153 | 75900 | TB640_005 Fab-SASA VL-I33A (Fab, V domains shown, not shown: SASA tag then His-tag) VH: EVQLVESGGDLVKPGGSLRLSCVASGFTFRDYAMTWVRQAPGKGLQWVSLISGSGGKTYYADAVKGRFTISRDNAKNTLYLQMNSLRAEDTAVYYCAVDRLTKTIRPQYYGLWVWGQGTLVTVSS VL: DIVMTQTPLSLSVSPGETASISCRSSQSLLYSAGYNYLDWYLQKPGQSPQGLIYLGSKRASGVPDRFSGSGSGTDFTLRISRVEANDTGVYYCMQGLQSPLTFGQGTKLEIKR
10 | 7.97 | 1.42 | 0.000669 | 83900 | TB640_005 Fab-SASA VL-L55M (Fab, V domains shown, not shown: SASA tag then His-tag) VH: EVQLVESGGDLVKPGGSLRLSCVASGFTFRDYAMTWVRQAPGKGLQWVSLISGSGGKTYYADAVKGRFTISRDNAKNTLYLQMNSLRAEDTAVYYCAVDRLTKTIRPQYYGLWVWGQGTLVTVSS VL: DIVMTQTPLSLSVSPGETASISCRSSQSLLYSIGYNYLDWYLQKPGQSPQGLIYMGSKRASGVPDRFSGSGSGTDFTLRISRVEANDTGVYYCMQGLQSPLTFGQGTKLEIKR
11 | 15.5 | 0.96 | 0.000996 | 64200 | TB640_005 Fab-SASA VL-Q27L (Fab, V domains shown, not shown: SASA tag then His-tag) VH: EVQLVESGGDLVKPGGSLRLSCVASGFTFRDYAMTWVRQAPGKGLQWVSLISGSGGKTYYADAVKGRFTISRDNAKNTLYLQMNSLRAEDTAVYYCAVDRLTKTIRPQYYGLWVWGQGTLVTVSS VL: DIVMTQTPLSLSVSPGETASISCRSSLSLLYSIGYNYLDWYLQKPGQSPQGLIYLGSKRASGVPDRFSGSGSGTDFTLRISRVEANDTGVYYCMQGLQSPLTFGQGTKLEIKR
12 | 12.7 | 0.94 | 0.00101 | 79800 | TB640_005 Fab-SASA VL-I33V (Fab, V domains shown, not shown: SASA tag then His-tag) VH: EVQLVESGGDLVKPGGSLRLSCVASGFTFRDYAMTWVRQAPGKGLQWVSLISGSGGKTYYADAVKGRFTISRDNAKNTLYLQMNSLRAEDTAVYYCAVDRLTKTIRPQYYGLWVWGQGTLVTVSS VL: DIVMTQTPLSLSVSPGETASISCRSSQSLLYSVGYNYLDWYLQKPGQSPQGLIYLGSKRASGVPDRFSGSGSGTDFTLRISRVEANDTGVYYCMQGLQSPLTFGQGTKLEIKR
13 | 4.15 | 1.99 | 0.00048 | 116000 | TB640_005 Fab-SASA VL-Q95N (Fab, V domains shown, not shown: SASA tag then His-tag) VH: EVQLVESGGDLVKPGGSLRLSCVASGFTFRDYAMTWVRQAPGKGLQWVSLISGSGGKTYYADAVKGRFTISRDNAKNTLYLQMNSLRAEDTAVYYCAVDRLTKTIRPQYYGLWVWGQGTLVTVSS VL: DIVMTQTPLSLSVSPGETASISCRSSQSLLYSIGYNYLDWYLQKPGQSPQGLIYLGSKRASGVPDRFSGSGSGTDFTLRISRVEANDTGVYYCMNGLQSPLTFGQGTKLEIKR
14 | 15.9 | 0.86 | 0.00111 | 69700 | TB640_005 Fab-SASA VL-Q27T (Fab, V domains shown, not shown: SASA tag then His-tag) VH: EVQLVESGGDLVKPGGSLRLSCVASGFTFRDYAMTWVRQAPGKGLQWVSLISGSGGKTYYADAVKGRFTISRDNAKNTLYLQMNSLRAEDTAVYYCAVDRLTKTIRPQYYGLWVWGQGTLVTVSS VL: DIVMTQTPLSLSVSPGETASISCRSSTSLLYSIGYNYLDWYLQKPGQSPQGLIYLGSKRASGVPDRFSGSGSGTDFTLRISRVEANDTGVYYCMQGLQSPLTFGQGTKLEIKR
15 | 14.9 | 0.97 | 0.000979 | 65700 | TB640_005 Fab-SASA VL-Q27H (Fab, V domains shown, not shown: SASA tag then His-tag) VH: EVQLVESGGDLVKPGGSLRLSCVASGFTFRDYAMTWVRQAPGKGLQWVSLISGSGGKTYYADAVKGRFTISRDNAKNTLYLQMNSLRAEDTAVYYCAVDRLTKTIRPQYYGLWVWGQGTLVTVSS VL: DIVMTQTPLSLSVSPGETASISCRSSHSLLYSIGYNYLDWYLQKPGQSPQGLIYLGSKRASGVPDRFSGSGSGTDFTLRISRVEANDTGVYYCMQGLQSPLTFGQGTKLEIKR
16 | 15 | 0.91 | 0.00105 | 70400 | TB640_005 Fab-SASA VL-S57T (Fab, V domains shown, not shown: SASA tag then His-tag) VH: EVQLVESGGDLVKPGGSLRLSCVASGFTFRDYAMTWVRQAPGKGLQWVSLISGSGGKTYYADAVKGRFTISRDNAKNTLYLQMNSLRAEDTAVYYCAVDRLTKTIRPQYYGLWVWGQGTLVTVSS VL: DIVMTQTPLSLSVSPGETASISCRSSQSLLYSIGYNYLDWYLQKPGQSPQGLIYLGTKRASGVPDRFSGSGSGTDFTLRISRVEANDTGVYYCMQGLQSPLTFGQGTKLEIKR
17 | 27.3 | 0.51 | 0.00187 | 68600 | TB640_005 Fab-SASA VL-L30A (Fab, V domains shown, not shown: SASA tag then His-tag) VH: EVQLVESGGDLVKPGGSLRLSCVASGFTFRDYAMTWVRQAPGKGLQWVSLISGSGGKTYYADAVKGRFTISRDNAKNTLYLQMNSLRAEDTAVYYCAVDRLTKTIRPQYYGLWVWGQGTLVTVSS VL: DIVMTQTPLSLSVSPGETASISCRSSQSLAYSIGYNYLDWYLQKPGQSPQGLIYLGSKRASGVPDRFSGSGSGTDFTLRISRVEANDTGVYYCMQGLQSPLTFGQGTKLEIKR
